# How the values were obtained:
# [1] = Long-term high dose preclinical toxicology of X209 and X203; type: in vivo, mouse; conditions: 10 mg/kg ×2/week, 5 months
# Method: FIGS. 19A to 19J. Anti-IL-11 therapies inhibit HSC-to-myofibroblasts transformation in an ERK dependent manner and have a favourable metabolic safety profile. (A) Dose-response curve and IC50 value of X203 and X209 and ([…] to 4 μg/ml; 4-fold dilution) in inhibiting MMP2 secretion by TGFβ1-stimulated HSCs. (B) ELISA of IL-11 secretion from HSCs stimulated with various NASH factors (n≥5/group). (C) Representative fluorescence images and quantification of ACTA2^+ve cells from HSCs treated with TGFβ1 and other NASH factors in the presence of IgG, X203, or X209 (scale bars, 100 μm and dotted line represents the median value of baseline). (D) Effects of X203 and X209 on PDGF- or CCL2-induced HSC invasion. (E) Western blots of p-ERK and ERK in HSC lysates stimulated IL-11 (upper panel) or with various NASH factors in the presence of IgG or X209 (bottom panel). (F) Representative fluorescence images and quantification of ACTA2^+ve cells in HSCs treated with IL-11 and important NASH factors in the presence of ERK/MEK inhibitors U0126 or PD98059 (scale bars, 100 μm and dotted line represents the median value of baseline). (A-F) TGFβ1 (5 ng/ml), IL-11 (5 ng/ml), PDGF (20 ng/ml), AngII (100 nM), bFGF (10 ng/ml), CM (5 ng/ml), H2O2 (0.2 mM), IgG, X203 and X209 (2 μg/ml), U0126 or PD98059 (10 μM); (A,C,E-F) 24 h; (B,D) 48 h. (G) Peripheral platelet counts, (H) serum ALT levels, (I), serum triglycerides levels, and (J) serum cholesterol levels from mice injected biweekly with 10 mg/kg of X203 and X209 for 5 months (n≥5/group). (B,D) Data are shown as mean±s.d; (C,F,G-J) data are shown as box-and-whisker with median (middle line), 25th-75th percentiles (box) and min-max percentiles (whiskers). (B,D,G-J) Two-tailed Dunnett's test; (C, F) two-tailed, Tukey-corrected Student's t-test. FC: fold change.
# The published literature on IL-11 in the liver is limited but injection of high dose recombinant human IL-11 into rodents has been associated with protective effects^13,14 and there is confusion as to a role for IL-11 in platelets biology^25. To exclude safety issues, the inventors performed long-term (5 months) high dose (10 mg/kg×2/week) preclinical toxicology studies of X209 and X203 and observed no effect on serum ALT levels or platelets (FIG. 19G-19H). Consistent with the data in the Il11ra^−/− mice, anti-IL-11 therapies lowered, or trended towards lowering, serum lipid levels during this treatment period (FIGS. 19I-19J).
# HFMCD-fed mice = experiment: HFMCD diet model of cachexia-related weight loss; type: in vivo, mouse
# Excerpt: High fat methionine choline deficient diet (HFMCD) was used to establish cachexia-like metabolic disorder. In order to establish cachexia weight loss and lean mass loss, C57BL/6N mice were fed with methionine and choline deficient (HFMCD) diet supplemented with 60 kcal % fat (A06071301B, Research Diets).
# Five-week old male mice were fed a methionine- and choline-deficient (MCD) diet with 60 kcal % fat (A06071301B, Research Diets), designated a high fat MCD (HFMCD) diet, which causes more severe NASH than an MCD diet alone. Control mice were fed with normal chow (NC; Specialty Feeds). Mice were intraperitoneally injected twice per week with 10 mg/kg of anti-IL-11 antibody or anti-IL-11 RA antibody, or identical concentration of IgG isotype control one week after they had received HFMCD for the same treatment duration. Body weight was measured weekly.
# To investigate further the effect of inhibition of IL-11-mediated signalling with respect to cachexia, a range of doses of anti-IL-11 therapy were studied in the MCD model. Five-week old male mice were fed on the HFMCD or NC diet as before for one week to induce cachexia, resulting in a ˜15% loss in body weight in MCD mice. After the initial week, mice were intraperitoneally injected twice per week with 0.5, 1, 5 or 10 mg/kg of anti-IL-11 or anti-IL-11 RA antibody. Three antibodies were studied: two anti-IL-11 ((1) and (2)), and one anti-IL-11 RA. 10 mg/kg of IgG isotype antibody was used as a control.
# Body weight and food consumption were measured weekly. For food consumption, average food intake was measured (g/mouse/week) in food hoppers from cages (n=3 mice per cage).
# [2] = 0.5, 1, 5 or 10 mg/kg twice per week
Molecule,platelets [1],serum ALT levels [1],"body weight (HFMCD-fed mice; 10 mg/kg twice per week from week 1, listed as anti-IL-11, 10 mg/kg)","body weight (HFMCD-fed mice; 10 mg/kg twice per week from week 1, listed as anti-IL-11 RA, 10 mg/kg)","body weight (HFMCD-fed mice; 10 mg/kg twice per week from week 1, listed as anti-IL-11Rα, 10 mg/kg)",body weight (HFMCD-fed mice; [2]),food consumption (HFMCD-fed mice; [2])
"X203: mouse anti-mouse IL-11 IgG (IgG1κ), neutralising; VH SEQ ID NO:22, VL SEQ ID NO:23 (antibody, V domains shown, Enx203 VH; Enx203 VL) VH: EVQLQQSGPELVKPGASVKIPCKASGYTFTDYNMDWVKQSHGKSLEWIGDINPHNGGPIYNQKFTGKATLTVDKSSSTAYMELRSLTSEDTAVYYCARGELGHWYFDVWGTGTTVTVSS VL: DIVLTQSPASLAVSLGQRATISCRASKSVSTSGYSYIHWYQQKPGQPPKLLIYLASNLDSGVPARFSGSGSGTDFTLNIHPVEEEDAATYYCQHSRDLPPTFGGGTKLEIK",no effect,no effect,"quickly regained weight and returned to normal, or near-normal, weight by 5 weeks later",,,,
"X209: mouse anti-mouse IL-11Rα IgG (IgG1κ), neutralising; VH SEQ ID NO:24, VL SEQ ID NO:25 (antibody, V domains shown, Enx209 VH; Enx209 VL) VH: QVQLQQPGAELVRPGSSVKLSCKASGYTFTNYWMHWLKQRPVQGLEWIGNIGPSDSKTHYNQKFKDKATLTVDKSSSTAYMQLNSLTSEDSAVYYCARGDYVLFTYWGQGTLVTVSA VL: DIVLTQSPATLSLSPGERATLSCRASQSISNNLHWYQQKSHEAPRLLIKYASQSISGIPARFSGSGSGTDFTLSFSSLETEDFAVYFCQQSYSWPLTFGQGTKLEIK",no effect,no effect,,"quickly regained weight and returned to normal, or near-normal, weight by 5 weeks later",returned to normal or near-normal weight,most effective in reversing weight loss,greatest increase in food intake
